Patent US12564609B2, “Hematopoietic stem cell engraftment with a combination of agents” (The Board of Trustees of the Leland Stanford Junior …, priority 2020, dated 2026)

B1: JSP191: anti-human CD117 mAb, humanized form of SR1, aglycosylated IgG1 (antibody, chains of the INN, looked up, V domains shown)
VH: QVQLVQSGAEVKKPGASVKVSCKASGYTFTSYNMHWVRQAPGQGLEWMGVIYSGNGDTSYNQKFKGRVTITADKSTSTAYMELSSLRSEDTAVYYCARERDTRFGNWGQGTLVTVSS
VL: DIVMTQSPDSLAVSLGERATINCRASESVDIYGNSFMHWYQQKPGQPPKLLIYLASNLESGVPDRFSGSGSGTDFTLTISSLQAEDVAVYYCQQNNEDPYTFGGGTKVEIK
B2: SCF: recombinant murine stem cell factor (PeproTech), ligand of CD117 (protein, UniProt P20826 26-190, looked up)
Soluble KIT ligand: KEICGNPVTDNVKDITKLVANLPNDYMITLNYVAGMDVLPSHCWLRDMVIQLSLSLTTLLDKFSNISEGLSNYSIIDKLGKIVDDLVLCMEENAPKNIKESPKRPETRSFTPEEFFSIFNRSIDAFKDFMVASDTSDCVLSSTLGPEKDSRVSVTKPFMLPPVAA

Assays:
HSC = details: non-human primates; cited from earlier work
human MDS HSC = details: MDS-xenografted mice; cited from earlier work
CD117 = biological target: T1, CD117 (Homo sapiens, UniProt P10721); details: children with SCID, single agent conditioning prior to allogeneic HCT; cited from earlier work
T1 construct: JSP191, used as single agent conditioning prior to allogeneic HCT in children with SCID; endogenous in cells; host or cells: hematopoietic stem and progenitor cells of human SCID patients (in vivo, clinical trial)
T1 sequence (P10721 26-976): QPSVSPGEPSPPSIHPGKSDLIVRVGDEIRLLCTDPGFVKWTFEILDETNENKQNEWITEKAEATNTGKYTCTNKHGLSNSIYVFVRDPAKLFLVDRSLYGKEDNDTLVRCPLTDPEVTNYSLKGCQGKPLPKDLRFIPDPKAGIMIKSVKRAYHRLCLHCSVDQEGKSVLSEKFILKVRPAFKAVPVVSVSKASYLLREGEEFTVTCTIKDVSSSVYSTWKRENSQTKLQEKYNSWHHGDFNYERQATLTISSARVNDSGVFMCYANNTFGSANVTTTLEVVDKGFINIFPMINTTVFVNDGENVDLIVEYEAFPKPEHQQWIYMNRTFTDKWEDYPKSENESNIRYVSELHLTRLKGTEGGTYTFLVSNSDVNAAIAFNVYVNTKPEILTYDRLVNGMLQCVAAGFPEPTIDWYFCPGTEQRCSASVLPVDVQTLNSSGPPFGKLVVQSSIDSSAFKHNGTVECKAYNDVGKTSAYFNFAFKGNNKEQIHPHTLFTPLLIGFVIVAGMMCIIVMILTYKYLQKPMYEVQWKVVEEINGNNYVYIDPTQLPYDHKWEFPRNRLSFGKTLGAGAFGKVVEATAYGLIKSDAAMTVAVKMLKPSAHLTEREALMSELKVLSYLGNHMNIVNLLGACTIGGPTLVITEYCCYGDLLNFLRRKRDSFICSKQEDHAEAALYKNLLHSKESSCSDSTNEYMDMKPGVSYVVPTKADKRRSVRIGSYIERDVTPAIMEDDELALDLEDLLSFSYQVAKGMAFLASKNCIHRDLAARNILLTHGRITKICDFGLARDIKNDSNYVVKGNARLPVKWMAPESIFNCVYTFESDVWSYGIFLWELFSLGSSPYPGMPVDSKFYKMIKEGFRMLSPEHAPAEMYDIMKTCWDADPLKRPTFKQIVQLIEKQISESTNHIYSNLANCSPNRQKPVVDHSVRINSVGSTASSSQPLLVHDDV

[1] = tested on: hematopoietic stem and progenitor cells; assay: In vivo HSC depletion by anti-CD117 mAb in combination with AZA; set-up: species or system C57BL/6 mice; details: 1 μg exogenous murine SCF for 5 days in mice treated with ACK2 and AZA, day 11
Protocol: A. Schematic of treatment protocol. C57BL/6 mice were injected retroorbital with single dose of ACK2 500 μg 5 days prior start treatment with AZA. AZA was administered in dose 5 mg/kg/d daily for 5 days. Mice were sacrificed 6, 10, 17 and 20 days after first dose of AZA and bone marrow (BM) and spleens were harvested and analyzed for HSC-depletion and depletion of mature myeloid and lymphoid cells. […] Magnification 100 μm. C. Absolute numbers of the different HSPC compartments in the BM and spleen of untreated controls and mice treated with ACK2 in combination with AZA at 6, 10, 17 20 days after start AZA as measured by flow cytometry; Lin^−Sca1^+c-Kit^+(LSK)CD150+CD48^− (LT-HSC), LSKCD150^−CD48^− (ST-HSC), LSKCD150^+CD48^+ (MPP2), LSKCD150^−CD48^+ (MPP3/4). Data represent mean±SD (n=3-4 per group per timepoint). Statistics were calculated Mann-Whitney test (*P<0.05). […] ACK2 and 2B8 were administered as a single dose of 500 μg retroorbital 5 days prior treatment with AZA; AZA was given at dose 5 mg/kg/d for 5 days. BM was analyzed at d6, d10 and d20 after the start of AZA. […] Statistics were calculated by Kruskal-Wallis test (*P<0.05, ***P<0.001). […] Mice were sacrificed at day 11 after first dose of AZA and BM and spleen were analyzed for HSC-depletion. […] Statistics were calculated by Mann-Whitney test (*P<0.05, ns=non-significant). […]

Row | Molecule | HSC elimination and off-target toxicity (HSC) | depletion of human MDS HSC (human MDS HSC) | long-term HSC engraftment (CD117) | tolerability (CD117) | ST-HSC, MPP2 and MPP3/4 in the bone marrow [1] | recovery of LT-HSC in the bone marrow [1]
1 | B1 | can eliminate HSC with little to no off-target toxicity | depletes human MDS HSC | all showed evidence of long-term HSC engraftment | tolerated JSP191 well, without safety issues |  | 
2 | B2 |  |  |  |  | no changes | faster recovery of LT-HSC
